From article PMC7253548 come the findings set out here.

In the data set the target is OsHsfB4d (Oryza sativa (rice; cv. Zhonghua 11?)) (UniProt Q10KX8). The data set can be described thus: EMSA. As to conditions: room temperature 20 min, buffer. (In general: A gel shift assay detects complexes by their altered migration in electrophoresis.)
Chain of OsHsfB4d (Oryza sativa (rice; cv. Zhonghua 11?)) (Q10KX8 whole entry): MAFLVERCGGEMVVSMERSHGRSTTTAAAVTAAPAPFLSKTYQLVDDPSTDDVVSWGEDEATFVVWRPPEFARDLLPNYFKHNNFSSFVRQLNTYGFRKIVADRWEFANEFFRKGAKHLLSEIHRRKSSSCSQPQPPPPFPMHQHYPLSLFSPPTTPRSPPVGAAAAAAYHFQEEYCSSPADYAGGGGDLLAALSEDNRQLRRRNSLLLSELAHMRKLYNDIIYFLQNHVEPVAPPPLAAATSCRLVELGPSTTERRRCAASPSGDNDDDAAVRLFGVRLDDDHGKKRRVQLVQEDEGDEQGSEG

With “CGTCGGAATAGCTGCGAATTTGGAGGTGGAACGATCGGACTTCTCTGAGTTCTTACTCTGATGTTTGCTTGGTTTGCTTTGCGTTTTCTTCGTGGTTCTGCCGGTGAAGGGGAGCGCGGTTTTATAGAGGGCAGCGAGAGGGCATCGTGGAGCTTGGAATAAGCTTCTAGAAACTTCCAGTTTGCCCCCGCATGGGCTAGAACCTAGTACGAGATAGCTTGGGCTAGAAGTTTACACCACCGGTAGCGGGGTGGGCTGTAGCCCATAGCGTCCAG (double strand)”, the binding entry is recorded as “binds”.
